Assay results: US20190375831A1 (US Dept. of Health and Human Services, published 2019)

Legend:
[1] = molecular target: T1, recombinant PfCSP (rPfCSP, residues 21-375) (Plasmodium falciparum, UniProt P19597 21-375); experiment: biolayer interferometry, biotinylated CSP on the sensor, whole IgG in solution; apparent KD
T1 construct: also called recombinant wild type PfCSP; not shown: C-terminal Avi-tag, HRV3C-processing tag and His-purification tag

[2] = molecular target: T1, recombinant PfCSP (rPfCSP, residues …); experiment: ITC, first binding event
[3] = molecular target: T2, PfCSP on P. falciparum sporozoites (PfSPZ) (Plasmodium falciparum, UniProt P19597 19-374); experiment: ELISA on coated PfSPZ, OD405nm
[4] = molecular target: T1, recombinant PfCSP (rPfCSP, residues …); experiment: ELISA on coated rPfCSP, OD405nm
[5] = molecular target: T1, recombinant PfCSP (rPfCSP, residues …); experiment: ITC, second binding event
[6] = molecular target: T1, recombinant PfCSP (rPfCSP, residues …); experiment: ITC, mAb injected into rPfCSP, one set of sites (Kd = […] nM)
[7] = molecular target: T1, recombinant PfCSP (rPfCSP, residues …); experiment: ITC, one binding event
[8] = molecular target: T1, recombinant PfCSP (rPfCSP, residues …); experiment: ITC, mAb injected into rPfCSP, one set of sites (Kd = 51 nM)
[9] = molecular target: T2, PfCSP on P. falciparum sporozoites …; experiment: immunofluorescence assay on PfSPZ
[10] = molecular target: T1, recombinant PfCSP (rPfCSP, residues …); experiment: ITC, CIS43 Fab injected into rPfCSP, two sets of sites, second set
[11] = molecular target: T1, recombinant PfCSP (rPfCSP, residues …); experiment: ITC, CIS43 Fab injected into rPfCSP, two sets of sites, first set
[12] = molecular target: T1, recombinant PfCSP (rPfCSP, residues …); experiment: ITC, mAb injected into rPfCSP, one set of sites (Kd = […] nM)

T2 sequence (P19597 19-374 limits assumed): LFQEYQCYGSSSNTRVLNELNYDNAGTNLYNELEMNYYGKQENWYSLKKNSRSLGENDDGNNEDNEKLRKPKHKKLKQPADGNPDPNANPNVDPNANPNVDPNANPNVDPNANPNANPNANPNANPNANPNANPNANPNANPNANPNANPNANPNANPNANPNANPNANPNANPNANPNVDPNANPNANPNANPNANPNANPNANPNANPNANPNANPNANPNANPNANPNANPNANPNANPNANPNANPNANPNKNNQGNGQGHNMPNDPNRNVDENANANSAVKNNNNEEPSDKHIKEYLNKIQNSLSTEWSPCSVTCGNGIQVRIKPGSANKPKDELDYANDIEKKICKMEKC
T1 sequence (P19597 21-375): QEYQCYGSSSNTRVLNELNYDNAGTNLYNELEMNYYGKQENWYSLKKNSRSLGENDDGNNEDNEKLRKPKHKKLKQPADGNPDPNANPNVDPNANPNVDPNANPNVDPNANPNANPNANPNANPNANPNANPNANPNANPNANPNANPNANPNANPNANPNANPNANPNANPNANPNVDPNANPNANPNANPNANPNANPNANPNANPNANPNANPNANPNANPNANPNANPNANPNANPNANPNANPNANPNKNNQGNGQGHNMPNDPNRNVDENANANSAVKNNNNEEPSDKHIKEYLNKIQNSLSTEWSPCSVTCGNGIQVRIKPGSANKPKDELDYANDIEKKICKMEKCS

B1: mAb CIS34 (antibody, human IgG1, kappa, V domains shown)
VH: QVQLVESGGGVVQPGRSLRLSCAASGFTFSSYGIHWVRQAPGKGLEWVAVIWYDGSKKYYGDSVKGRFTISRDNSKNTLYLQMNSLRVEDTAVYYCARAVIAATGTRGYWFDPWGQGTLVTVSS
VL: DIIMTQSPVSLSASVGDRVTITCRASQSISSHLNWYQQKPGKAPKLLIYAASSLQSGVPSRFSGSGSGTDFTLTISSLQPEDFATYSCQQTYRGFTFAPGTKVDIKR
[1]
  Kd: 1.5 nM
[2]
  Kd: 31 nM
[3]
  binding result: binds
[4]
  EC50 (read off the curve): ~3 ng/mL
[5]
  Kd: 80 nM

B2: CIS06 (antibody, V domains shown)
VH: QVQLVQSGPEVKKPGTSVKVSCKASGFTFSSSAVQWVRQARGQRLEWIGWIVVGSGKTKYAQNFQQRVTITRDMSTSTAYLELSTLRSEDTAVYYCAAVVNWNDESGFDPWGQGTLVTVSS
VL: DIQMTQSPSSLSAFVGDRVTITCRASQSIGTYLNWYQQKVGQAPKLLIYTASSLRSGVPSRFSGSGSGTDFTLTITSLQPEDFATYYCQQSYSTYTFGQGTKLEIK
notes: also called mAb CIS06
[4]
  EC50 (read off the curve): ~100 ng/mL

B3: mAb10 (antibody, human IgG1, kappa, V domains shown)
VH: EVQLVESGGGVVQPGRSLRLSCEASGFTFSTYGMHWVRQAPGKGLEWVAIIWHDGSKKYHADSVRGRFTISRDNSKNTLYLQMNSLRAEDTAVYFCARVGNYGGDWGAGFDYWGQGTLVTVSS
VL: DIQMTQSPSFLSASVGDRVTIACRASQSISSWLAWYQQKPGKAPKLLIYHASSLESGVPSRFSGSASGTEFALTISSLQPDDFATYYCQQYSSYWTFGQGTKVEIKR
[6]
  -TΔS: 22.7 kcal/mol
  ΔH: -33 kcal/mol

B4: mAb CIS42 (antibody, V domains shown)
VH: QVQLVQSGSELKKPGASVKVSCKTSGYTFTTYAMNWVRQAPGQGLEWMGWINTNTGNPTYAPGFTGRFVFSFDTSVSTAYLQISSLKAEDTAVYYCARVYSYGVPFDYWGQGTLVTVSS
VL: QSVLTQPASVSGSPGQSITISCTATSSNVGSFNLVSWYQHHPGKAPKLIIHEVSKRPSGASNRFSGSKSGNTASLTISGLQAEDEADYYCCSYVGSDTWVFGGGTKLTVL
[1]
  Kd: 0.76 nM
[7]
  Kd: 51 nM
[3]
  binding result: binds
[4]
  EC50 (read off the curve): ~5 ng/mL
[8]
  -TΔS: 12.8 kcal/mol
  ΔG: -9.9 kcal/mol
  ΔH: -22.7 kcal/mol

B5: CIS04 (antibody, V domains shown)
VH: QVQLVQSGAEVKKPGASVKVSCKASGYTFTSYAIHWVRQAPGQRLEWMGWIKAGNGDTRYSQKFQGRVTITRDTSATTAYMELSSLRSEDTAVYYCGLLTVLTPDDAFDIWGQGTMVTVSS
VL: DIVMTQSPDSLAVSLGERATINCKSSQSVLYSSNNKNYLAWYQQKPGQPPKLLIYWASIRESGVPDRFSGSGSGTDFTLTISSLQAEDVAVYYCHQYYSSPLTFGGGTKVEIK
notes: also called mAb CIS04
[9]
  binding result: binds

B6: CIS43 Fab (Fab, V domains shown)
VH: QVQLVQSGAEVKKPGASVKVSCKASGYTFTSYAIHWVRQAPGQRLEWMGWIKAGNGNTRYSQKFQDRVTITRDTSTTTAYMELSSLRSEDTAVYYCALLTVLTPDDAFDIWGQGTMVTVSS
VL: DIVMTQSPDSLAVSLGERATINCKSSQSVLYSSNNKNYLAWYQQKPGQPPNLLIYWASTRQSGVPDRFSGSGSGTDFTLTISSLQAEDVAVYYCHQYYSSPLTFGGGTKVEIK
[10]
  -TΔS2: -4.3 kcal/mol
  Kd: 250 nM
  ΔG2: -9 kcal/mol
  ΔH2: -4.7 kcal/mol
[11]
  -TΔS1: 12 kcal/mol
  Kd: 16 nM
  ΔG1: -10.6 kcal/mol
  ΔH1: -22.6 kcal/mol

B7: mAb CIS23 (antibody, V domains shown)
VH: EVQLVESGGGVVQPGRSLRLSCAASGFTFSSYGMYWVRQAPGKGLEWVALISHDGSNKFYADSVKGRFTISRDNSKNTLYLQMNSLRAEDTAVYYCAKDLGYSSSWGYFDYWGQGTLVTVSS
VL: EIVLTQSPATLSLSPGERATLSCRASQSVSSYLAWYQQKPGQAPRLLIYDASNRATGIPARFSGSGSGTDFTLTISSLEPEDFAVYYCQQRSNWYTFGQGTKLEIK
[3]
  binding result: binds
[12]
  -TΔS: 13.1 kcal/mol
  ΔG: -10.4 kcal/mol
  ΔH: -23.5 kcal/mol
